Patent publication US20220251154A1 (HANGZHOU SUMGEN BIOTECH, published 2022)

Key:
[1] = target: T1, PD-L1-Fc (UniProt Q9NZQ7 19-239, limits assumed); assay: competition ELISA: PD-L1-Fc coated, Biotin-Fc-PD1 (1 ug/ml) added with the binder; blocks PD-1/PD-L1
T1 construct: not shown: Fc part

[2] = target: T2, biotin-labeled CD47 (Biotin-Fc-CD47) (UniProt Q08722 19-139, limits assumed, biotin-labeled (site not stated)); assay: competition ELISA: SIRPα-His coated, Biotin-Fc-CD47 (2 ug/ml) pre-incubated with the binder; blocks CD47/SIRPα
T2 construct: not shown: Fc part
T2 sequence (Q08722 19-139 limits assumed): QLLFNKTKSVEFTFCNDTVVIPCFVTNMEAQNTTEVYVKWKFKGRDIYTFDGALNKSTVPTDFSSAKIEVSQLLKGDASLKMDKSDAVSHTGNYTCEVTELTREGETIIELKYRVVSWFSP

T1 sequence (Q9NZQ7 19-239 limits assumed): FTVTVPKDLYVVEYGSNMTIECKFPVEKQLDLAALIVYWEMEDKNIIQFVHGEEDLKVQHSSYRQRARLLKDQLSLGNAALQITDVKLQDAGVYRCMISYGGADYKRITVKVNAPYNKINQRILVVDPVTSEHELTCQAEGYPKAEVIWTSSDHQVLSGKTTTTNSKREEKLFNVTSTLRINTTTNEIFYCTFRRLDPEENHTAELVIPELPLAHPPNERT

IC50 [1]: 9.12 nM | IC50 [2]: 0.77 nM
B1: fusion protein SG12474 (bispecific antibody, human IgG1, kappa, N297A)
heavy: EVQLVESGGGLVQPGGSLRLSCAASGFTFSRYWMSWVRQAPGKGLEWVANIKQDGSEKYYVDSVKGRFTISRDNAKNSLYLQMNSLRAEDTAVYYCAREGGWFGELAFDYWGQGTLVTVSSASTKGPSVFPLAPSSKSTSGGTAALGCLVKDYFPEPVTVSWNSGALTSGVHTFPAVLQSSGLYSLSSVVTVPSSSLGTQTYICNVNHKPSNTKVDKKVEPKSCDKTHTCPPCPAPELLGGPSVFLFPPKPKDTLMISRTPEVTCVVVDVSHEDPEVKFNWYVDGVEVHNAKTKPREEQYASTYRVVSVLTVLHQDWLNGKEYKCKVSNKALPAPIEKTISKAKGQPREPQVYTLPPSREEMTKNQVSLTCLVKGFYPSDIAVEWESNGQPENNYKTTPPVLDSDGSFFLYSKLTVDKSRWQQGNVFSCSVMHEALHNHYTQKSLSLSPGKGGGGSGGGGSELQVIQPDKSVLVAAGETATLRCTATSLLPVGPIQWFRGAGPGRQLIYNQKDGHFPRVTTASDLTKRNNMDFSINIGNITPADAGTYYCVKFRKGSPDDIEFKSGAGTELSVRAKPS
light: EIVLTQSPGTLSLSPGERATLSCRASQRVSSSYLAWYQQKPGQAPRLLIYDASSRATGIPDRFSGSGSGTDFTLTISRLEPEDFAVYYCQQYGSLPWTFGQGTKVEIKRTVAAPSVFIFPPSDEQLKSGTASVVCLLNNFYPREAKVQWKVDNALQSGNSQESVTEQDSKDSTYSLSSTLTLSKADYEKHKVYACEVTHQGLSSPVTKSFNRGEC
notes: First polypeptide chain is the SG1202 light chain
